According to patent US20150160214A1, “Quantitation of Cellular Adhesion Dynamics Across Immobilized Receptors Under Rheological Shear Flow” (Mayo Foundation for Medical Education and Research, priority 2013, published 2015):

Columns and labels:
[1] = Conformational and thermodynamic classification of A1 domain variants (urea and thermal denaturation, CD, FL, ANS); format: physicochemical; conditions: for Thermodynamic stability: urea and thermal denaturation
Procedure: Circular dichroism measurements were performed on a Model No. 420C circular-dichroism spectrometer (Aviv Biomedical, Inc., Lakewood Township, N.J.). All fluorescence (FL) measurements were performed on a Fluorolog3 spectrofluorometer (HORIBA Jobin-Yvon, Edison, N.J.) equipped with a Model No. LF1-3751 temperature controller (Wavelength Electronics Inc., Bozeman, Mont.). Near- and far-ultraviolet (UV) circular dichroism (CD), intrinsic protein FL, and ANS (8-anilino naphthalene sulfonic acid) […] spectra were determined as described in Tischer et al. (19). Urea denaturation (monitored by far-UV CD) and thermal denaturation (monitored by far-UV CD, intrinsic protein FL, and ANS FL) were performed and analyzed as previously described (19,20). Acrylamide quenching of intrinsic tryptophan fluorescence was performed and analyzed as described in Tischer et al. (19). All spectra were collected at 20° C.
The effects of mutations on the thermodynamic stability of A1 (18) was determined and a framework that incorporated partial unfolding as a means for enhancing the binding affinity of A1 for GPIba was developed (17). Initially, urea-temperature phase diagram method were used for assessing the reversible thermodynamics of unfolding at various temperatures (18,21), and more recently thermal denaturations were used to assess kinetic irreversibility (20,22). The inventor employed these methods using a variety of spectroscopic observables that assess the conformation of these A1 domain variants as a function of temperature and urea.
The observables included the following: (1) Far-UV CD to assess secondary structure content; (2) Near-UV CD to assess tertiary structure content; (3) Intrinsic protein FL to assess solvent exposure of tyrosine and tryptophan residues; (4) Acrylamide quenching of tryptophan FL to assess local solvent exposure of the single tryptophan residue; and (5) Binding of the molten globule indicator-dye, ANS, to assess exposure of hydrophobic surface area.
In total, these studies have provided metrics that are able to classify the conformation of A1 into three types, based on biophysical spectroscopy, as follows:
The type 2B mutations R1306Q and I1309V and the type 2M mutation G1324S have previously been characterized in this conformational class (18). In addition, R1308L and I1372S also belong to this class.
The type 2M mutation A1437T and the type 2B mutation R1341Q belong to this class.
The type 2M mutations F1369I, E1359K, I1425F, S1285F, and R1374H, and the type 2B mutations H1268D, P1337L, V1316M, and V1314D, belong to this class.

platelet GPIbα = biological target: T1, platelet GPIbα (Homo sapiens, UniProt P07359); assay: Platelet pause times on surface-captured A1 domain variants, parallel plate flow chamber (Table 4, Example 3); format: cell-based; set-up: key to Pause Time 1500 s^−1 (s): NB = “No Binding.”; conditions: for Pause Time 1500 s^−1 (s): shear rate 1500 s^−1, mean ± std. dev., number of measurements in parentheses, NB = No Binding; for Platelet binding to surface-captured A1 domain variant: any shear rate
T1 construct: endogenous in cells; host or cells: platelets in citrated whole blood of normal healthy volunteer donors
Procedure: The determination and analysis of platelet pause times and instantaneous translocation velocities over surface captured A1 and RCAM A1 was performed as previously described (Tischer:2013). Here, the inventor used the Cellix Mims Evo syringe pump controlled by VenaFluxAssay (www.cellixltd.com). Vena8™ CGS biochips were custom designed with 800 μm width by 80 μm height microchannels bonded to glass slides with a Cu^2+ chelated PEG surface serviced by Microsurfaces Inc. (www.proteinslides.com/histag.html) to which the A1 and RCAM A1 in TBS were captured by the 6×His-Tag at a total concentration of 5 μM. Citrated whole blood was obtained from the informed consent of healthy volunteer donors with approval from the Mayo Clinic Institutional Review Board and 100 μL was perfused over the surface captured A1 domains at 700 s^−1. The shear was increased or decreased in a stepwise manner to measure the dynamics of platelet adhesion at high and low shear. After allowing the flow chamber to equilibrate for 50 s at each shear rate, 1 min movies were recorded at 24 frames per second in phase contrast at 200× magnification with 2×2 pixel binning on a Zeiss AxioCam Mrm camera (6.45 μm/px) attached to a Zeiss Axio Observer.D1 inverted microscope. Tracking analysis was performed using MediaCybernetics ImagePro® Premier (www.mediacy.com/index.aspx?page=IP\_Premier) The distance travelled in the direction of flow was calculated from the coordinate data for each platelet as a function of time using √{square root over ((xt−x0)^2)}, where x0 is the coordinates of a platelet on the first frame of the movie and xt is the coordinate on subsequent frames of the movie. These trajectories were differentiated into instantaneous velocities using a Savitzky-Golay algorithm (Savitzky:1964) with a five data point window size and a second order polynomial implemented into a Mathematica (www.wolfram.com/mathematica) notebook written in our lab. Trajectories were retained for statistical analysis if the platelet was present for ≧1 s and travelled a total distance greater than 1 Distance travelled in pixels (px) was converted to (μm) using 6.45 μm/px*2/200=0.0645 μm/px. Pause times were determined by the amount of time (sec) a platelets velocity was 0±4 px/s≅0±0.23 μm/s, within the noise. Data are reported as mean velocities and pause times attained by individual platelets averaged over all platelets analyzed. Integral analysis of the cumulative pause time histogram gives the survival fraction, equation (24).
The rheological interaction of platelets with A1 domain variants harboring type 2M and type 2B mutations was studied using recently developed flow-chamber methods (19). The A1 domains ([…]) were immobilized on Vena8™ biochips (Cellix, Dublin, Ireland) coated with a Cu^2+-chelated poly-ethylene-glycol surface serviced by MicroSurfaces, Inc. (Englewood, N.J.) via the 6×His-Tag, enabling the preservation of the structural properties of the domain in solution and its concomitant effects on platelet adhesion under rheological shear flow. One-hundred microliters of citrated whole blood, obtained from the informed consent of normal healthy volunteer donors with approval from the Mayo Clinic Institutional Review Board (Rochester, Minn.), was perfused at a shear rate of 800 s^−1 followed by Tris-buffered saline. Platelets translocating on the surface-captured domains were filmed at 24 frames/s for 1 min at logarithmic intervals of the shear rate. Coordinates obtained from tracking analysis of the resulting movies were processed using the inventor recently developed statistical analytics for the quantification of cellular adhesion dynamics across immobilized receptors under rheological shear flow (supra). Biochips lacking the surface-captured A1 domain were completely inert to platelets.

| Substance | Conformational class (in words) [1] | Pause Time 1500 s^−1 (s) (platelet GPIbα) | A1 domain Conformation [1] | Platelet binding to surface-captured A1 domain variant (platelet GPIbα) | Platelet adhesion function (gain or loss of function) (platelet GPIbα) | Thermodynamic stability [1] |
| --- | --- | --- | --- | --- | --- | --- |
| V1316M: vWF A1 domain variant with type 2B vWD mutation V1316M | significantly reduced tertiary structure content |  |  |  |  |  |
| G1324S: vWF A1 domain variant with type 2M vWD mutation G1324S | global native fold | NB (3) | N (N = “Native” (native structure with varying thermodynamic stability)) |  |  |  |
| I1372S: vWF A1 domain variant with type 2B vWD mutation I1372S | global native fold |  | N (N = “Native” (native structure with varying thermodynamic stability)) |  |  |  |
| I1309V: vWF A1 domain variant with type 2B vWD mutation I1309V | global native fold |  | N (N = “Native” (native structure with varying thermodynamic stability)) |  |  |  |
| R1374H: vWF A1 domain variant with type 2M vWD mutation R1374H | significantly reduced tertiary structure content | NB (2) |  | did not bind platelets at any shear rate |  |  |
| F1369I: vWF A1 domain variant with type 2M vWD mutation F1369I | significantly reduced tertiary structure content | NB (2) |  | did not bind platelets at any shear rate | complete loss-of-function |  |
| R1341Q: vWF A1 domain variant with type 2B vWD mutation R1341Q | reduced secondary structure content |  |  |  |  | low stability |
| A1437T: vWF A1 domain variant with type 2M vWD mutation A1437T | reduced secondary structure content |  |  |  | mild loss-of-function | low stability |
| S1285F: vWF A1 domain variant with type 2M vWD mutation S1285F | significantly reduced tertiary structure content | NB (2) |  | did not bind platelets at any shear rate |  |  |
| H1268D: vWF A1 domain variant with type 2B vWD mutation H1268D | significantly reduced tertiary structure content |  |  |  |  |  |
| E1359K: vWF A1 domain variant with type 2M vWD mutation E1359K | significantly reduced tertiary structure content | NB (2) |  | did not bind platelets at any shear rate | complete loss-of-function |  |
| V1314D: vWF A1 domain variant with type 2B vWD mutation V1314D | significantly reduced tertiary structure content |  |  |  |  |  |
| H1308L: vWF A1 domain variant with type 2B vWD mutation, printed H1308L in Table 4, R1308L elsewhere | global native fold |  | N (N = “Native” (native structure with varying thermodynamic stability)) |  |  |  |
| R1306Q: vWF A1 domain variant with type 2B vWD mutation R1306Q | global native fold |  | N (N = “Native” (native structure with varying thermodynamic stability)) |  |  |  |
| P1337L: vWF A1 domain variant with type 2B vWD mutation P1337L | significantly reduced tertiary structure content |  |  |  | extreme type 2B gain-of-function |  |
| I1425F: vWF A1 domain variant with type 2M vWD mutation I1425F | significantly reduced tertiary structure content | NB (2) |  | did not bind platelets at any shear rate |  |  |
